Positions of bridges follow the written chain, without caps; N, C: chain ends. Non-standard residues stand in square brackets, D forms with d. Groups on a side chain read outwards from the residue. Primed or numbered codes have the meaning given here. *: point of attachment. X2 = (2-(2-(16-(tetrazol-5-yl)hexadecanoylamino)ethoxy)ethoxy)acetyl, O=C(CCCCCCCCCCCCCCCc1nn[nH]n1)NCCOCCOCC(=O)*; X5 = NH(2-(2-(2-(17-carboxyheptadecanoylamino)ethoxy)ethoxy)ethyl), O=C(O)CCCCCCCCCCCCCCCCC(=O)NCCOCCOCCN*; X6 = (2-(2-(17-carboxyheptadecanoylamino)ethoxy)ethoxy)acetyl, O=C(O)CCCCCCCCCCCCCCCCC(=O)NCCOCCOCC(=O)*; X3 = (2-(2-(15-carboxypentadecanoylamino)ethoxy)ethoxy)acetyl, O=C(O)CCCCCCCCCCCCCCC(=O)NCCOCCOCC(=O)*; X4 = (2-(2-(16-carboxyhexadecanoylamino)ethoxy)ethoxy)acetyl, O=C(O)CCCCCCCCCCCCCCCC(=O)NCCOCCOCC(=O)*; biscarboxymethyl = Lys(biscarboxymethyl) = Nepsilon-bis(carboxymethyl)-L-lysine; biscarboxymethyl(4) = Lys(biscarboxymethyl) = N6-bis(carboxymethyl)-L-lysine; bis(carboxymethyl) = Lys(biscarboxymethyl) = N6-bis(carboxymethyl)-L-lysine; Palmitoyl(16-(5-tetrazolyl)) = O=C(CCCCCCCCCCCCCCCc1nnn[nH]1)*; biscarboxymethyl(3) = Nepsilon-bis(carboxymethyl) on Lys; biscarboxymethyl″ = N6-bis(carboxymethyl) on L-lysine; Lys(CH2CO2H)2 = N[C@@H](CCCCN(CC(=O)O)CC(=O)O)C(=O)O; C18 diacid = O=C(O)CCCCCCCCCCCCCCCCC(=O)*; C17 diacid = O=C(O)CCCCCCCCCCCCCCCC(=O)*; C16 diacid = O=C(O)CCCCCCCCCCCCCCC(=O)*; Hyp = O=C(O)[C@@H]1C[C@@H](O)CN1; NTA = O=C(O)CN(CC(=O)O)CC(=O)*; hCys = N[C@@H](CCS)C(=O)O; Orn = NCCC[C@H](N)C(=O)O; Dab = NCC[C@H](N)C(=O)O; Dap = NC[C@H](N)C(=O)O; AEEA = NCCOCCOCC(=O)O
B1: Ac-c[Asp-His-D-Phe-Arg-Trp-Dap]-Pro-Pro-Arg-Asp-Lys(BCMA)-Lys[(2-{2-[16-(tetrazol-5-yl)hexadecanoylamino]ethoxy}ethoxy)acetyl]-NH2 (peptide)
peptide: Ac-DH[dF]RW[Dap]PPRDK(NTA)K(X2)-NH2
modifications: lactam 1-6
SMILES: CC(=O)N[C@H]1CC(=O)NC[C@@H](C(=O)N2CCC[C@H]2C(=O)N2CCC[C@H]2C(=O)N[C@@H](CCCNC(=N)N)C(=O)N[C@@H](CC(=O)O)C(=O)N[C@@H](CCCCNC(=O)CN(CC(=O)O)CC(=O)O)C(=O)N[C@@H](CCCCNC(=O)COCCOCCNC(=O)CCCCCCCCCCCCCCCc2nn[nH]n2)C(N)=O)NC(=O)[C@H](Cc2c[nH]c3ccccc23)NC(=O)[C@H](CCCNC(=N)N)NC(=O)[C@@H](Cc2ccccc2)NC(=O)[C@H](Cc2c[nH]cn2)NC1=O
B2: Ac-c[homoCys-His-D-Phe-Arg-Trp-Cys]-Pro-Pro-Lys-Asp-Dap(BCMA)-Lys[(2-{2-[16-(tetrazol-5-yl)hexadecanoylamino]ethoxy}ethoxy)acetyl]-NH2 (peptide)
peptide: Ac-[hCys]H[dF]RWCPPKD[Dap](NTA)K([AEEA-Palmitoyl(16-(5-tetrazolyl))])-NH2
modifications: disulfide 1-6
SMILES: CC(=O)N[C@H]1CCSSC[C@@H](C(=O)N2CCC[C@H]2C(=O)N2CCC[C@H]2C(=O)N[C@@H](CCCCN)C(=O)N[C@@H](CC(=O)O)C(=O)N[C@@H](CNC(=O)CN(CC(=O)O)CC(=O)O)C(=O)N[C@@H](CCCCNC(=O)COCCOCCNC(=O)CCCCCCCCCCCCCCCc2nnn[nH]2)C(N)=O)NC(=O)[C@H](Cc2c[nH]c3ccccc23)NC(=O)[C@H](CCCNC(=N)N)NC(=O)[C@@H](Cc2ccccc2)NC(=O)[C@H](Cc2c[nH]cn2)NC1=O
B3: Ac-c[homoCys-His-D-Phe-Arg-Trp-Cys]-Pro-Pro-Lys-Glu-Dap(BCMA)-Lys[(2-{2-[16-(tetrazol-5-yl)hexadecanoylamino]ethoxy}ethoxy)acetyl]-NH2 (peptide)
peptide: Ac-[hCys]H[dF]RWCPPKE[Dap](NTA)K([AEEA-Palmitoyl(16-(5-tetrazolyl))])-NH2
modifications: disulfide 1-6
SMILES: CC(=O)N[C@H]1CCSSC[C@@H](C(=O)N2CCC[C@H]2C(=O)N2CCC[C@H]2C(=O)N[C@@H](CCCCN)C(=O)N[C@@H](CCC(=O)O)C(=O)N[C@@H](CNC(=O)CN(CC(=O)O)CC(=O)O)C(=O)N[C@@H](CCCCNC(=O)COCCOCCNC(=O)CCCCCCCCCCCCCCCc2nnn[nH]2)C(N)=O)NC(=O)[C@H](Cc2c[nH]c3ccccc23)NC(=O)[C@H](CCCNC(=N)N)NC(=O)[C@@H](Cc2ccccc2)NC(=O)[C@H](Cc2c[nH]cn2)NC1=O
B4: Ac-c[Dap-His-D-Phe-Arg-Trp-Asp]-Pro-Pro-Arg-Asp-Lys(BCMA)-Lys[(2-{2-[16-(tetrazol-5-yl)hexadecanoylamino]ethoxy}ethoxy)acetyl]-NH2 (peptide)
peptide: Ac-[Dap]H[dF]RWDPPRDK(NTA)K([AEEA-Palmitoyl(16-(5-tetrazolyl))])-NH2
modifications: lactam 1-6
SMILES: CC(=O)N[C@H]1CNC(=O)C[C@@H](C(=O)N2CCC[C@H]2C(=O)N2CCC[C@H]2C(=O)N[C@@H](CCCNC(=N)N)C(=O)N[C@@H](CC(=O)O)C(=O)N[C@@H](CCCCNC(=O)CN(CC(=O)O)CC(=O)O)C(=O)N[C@@H](CCCCNC(=O)COCCOCCNC(=O)CCCCCCCCCCCCCCCc2nnn[nH]2)C(N)=O)NC(=O)[C@H](Cc2c[nH]c3ccccc23)NC(=O)[C@H](CCCNC(=N)N)NC(=O)[C@@H](Cc2ccccc2)NC(=O)[C@H](Cc2c[nH]cn2)NC1=O
B5: Ac-c[Lys-His-D-Phe-Arg-Trp-Asp]-Pro-Pro-His-Ser-Lys(biscarboxymethyl)-Ser-Ser-Glu-Lys({2-[2-(16-carboxyhexadecanoylamino)ethoxy]ethoxy}acetyl)-NH2 (peptide)
peptide: Ac-KH[dF]RWDPPHS[Lys(CH2CO2H)2]SSEK([AEEA-C17 diacid])-NH2
modifications: lactam 1-6
SMILES: CC(=O)N[C@H]1CCCCNC(=O)C[C@@H](C(=O)N2CCC[C@H]2C(=O)N2CCC[C@H]2C(=O)N[C@@H](Cc2c[nH]cn2)C(=O)N[C@@H](CO)C(=O)N[C@@H](CCCCN(CC(=O)O)CC(=O)O)C(=O)N[C@@H](CO)C(=O)N[C@@H](CO)C(=O)N[C@@H](CCC(=O)O)C(=O)N[C@@H](CCCCNC(=O)COCCOCCNC(=O)CCCCCCCCCCCCCCCC(=O)O)C(N)=O)NC(=O)[C@H](Cc2c[nH]c3ccccc23)NC(=O)[C@H](CCCNC(=N)N)NC(=O)[C@@H](Cc2ccccc2)NC(=O)[C@H](Cc2c[nH]cn2)NC1=O
B6: Ac-c[Cys-Glu-His-D-Phe-Arg-Trp-Gly-Cys]-Pro-Pro-Lys-Glu-Glu-Lys({2-[2-(15-carboxypentadecanoylamino)ethoxy]ethoxy}acetyl)-NH2 (peptide)
peptide: Ac-CEH[dF]RWGCPPKEEK([AEEA-C16 diacid])-NH2
modifications: disulfide 1-8
SMILES: CC(=O)N[C@H]1CSSC[C@@H](C(=O)N2CCC[C@H]2C(=O)N2CCC[C@H]2C(=O)N[C@@H](CCCCN)C(=O)N[C@@H](CCC(=O)O)C(=O)N[C@@H](CCC(=O)O)C(=O)N[C@@H](CCCCNC(=O)COCCOCCNC(=O)CCCCCCCCCCCCCCC(=O)O)C(N)=O)NC(=O)CNC(=O)[C@H](Cc2c[nH]c3ccccc23)NC(=O)[C@H](CCCNC(=N)N)NC(=O)[C@@H](Cc2ccccc2)NC(=O)[C@H](Cc2c[nH]cn2)NC(=O)[C@H](CCC(=O)O)NC1=O
B7: Ac-c[Glu-His-D-Phe-Arg-Trp-Lys]-Hyp-Hyp-Arg-Asp-Lys(biscarboxymethyl)-Lys[(2-{2-[16-(tetrazol-5-yl)hexadecanoylamino]ethoxy}ethoxy)acetyl]-NH2 (peptide)
peptide: Ac-EH[dF]RWK[Hyp][Hyp]RD[Lys(CH2CO2H)2]K([AEEA-Palmitoyl(16-(5-tetrazolyl))])-NH2
modifications: lactam 1-6
SMILES: CC(=O)N[C@H]1CCC(=O)NCCCC[C@@H](C(=O)N2C[C@H](O)C[C@H]2C(=O)N2C[C@H](O)C[C@H]2C(=O)N[C@@H](CCCNC(=N)N)C(=O)N[C@@H](CC(=O)O)C(=O)N[C@@H](CCCCN(CC(=O)O)CC(=O)O)C(=O)N[C@@H](CCCCNC(=O)COCCOCCNC(=O)CCCCCCCCCCCCCCCc2nnn[nH]2)C(N)=O)NC(=O)[C@H](Cc2c[nH]c3ccccc23)NC(=O)[C@H](CCCNC(=N)N)NC(=O)[C@@H](Cc2ccccc2)NC(=O)[C@H](Cc2c[nH]cn2)NC1=O

How the values were obtained:
MC1 receptor = molecular target: T1, MC1 receptor (UniProt Q01726 1-317, limits assumed); experiment: 125I-NDP-α-MSH displacement, BHK-MC1 membranes (Assay IV);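 also: membrane incubations stopped by filtration, retained radioactivity counted, Ki fitted by nonlinear regression to binding curves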
T1 construct: whole, on cells; also called melanocortin receptor subtype 1; melanocortin receptor 1
T1 sequence (Q01726 whole entry): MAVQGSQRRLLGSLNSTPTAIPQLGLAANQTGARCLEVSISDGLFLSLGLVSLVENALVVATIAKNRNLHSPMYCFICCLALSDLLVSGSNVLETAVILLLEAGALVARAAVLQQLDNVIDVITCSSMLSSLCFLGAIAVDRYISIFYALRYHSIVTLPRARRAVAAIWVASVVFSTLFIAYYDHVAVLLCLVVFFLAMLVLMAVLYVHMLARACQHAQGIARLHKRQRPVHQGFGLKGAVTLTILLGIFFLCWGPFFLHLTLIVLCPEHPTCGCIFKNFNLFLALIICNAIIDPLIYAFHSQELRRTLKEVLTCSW
Protocol: The MC1 receptor binding assay was performed on BHK cell membranes stably expressing the MC1 receptor. […] Test compounds were dissolved in DMSO. […] Alternatively, HSA may be substituted with ovalbumin. The samples were incubated at 30° C. for 90 min. in Costar round-bottom microtiter plates. Incubation was terminated by filtration on a Packard harvester filtermate. […] The filters were washed with ice-cold 0.9% NaCl 8-10 times. […] The plates were counted in a Topcounter (1 min/well).
(§1) The data were analysed by non-linear regression analysis of binding curves, using the Windows™ program GraphPad™ Prism (GraphPad Software, USA).

human MC4 receptor = molecular target: T2, human MC4 receptor (human, UniProt P32245 1-332); experiment: 125I-NDP-α-MSH displacement, BHK-human MC4 membranes (Assay V);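 also: Filter-retained radioactivity read by gamma counting, with affinity obtained through non-linear regression fitting of the binding curves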
T2 construct: whole, on cells; Assayed as membranes of BHK cells stably expressing the receptor; also called melanocortin receptor subtype 4; melanocortin receptor 4
T2 sequence (P32245 whole entry): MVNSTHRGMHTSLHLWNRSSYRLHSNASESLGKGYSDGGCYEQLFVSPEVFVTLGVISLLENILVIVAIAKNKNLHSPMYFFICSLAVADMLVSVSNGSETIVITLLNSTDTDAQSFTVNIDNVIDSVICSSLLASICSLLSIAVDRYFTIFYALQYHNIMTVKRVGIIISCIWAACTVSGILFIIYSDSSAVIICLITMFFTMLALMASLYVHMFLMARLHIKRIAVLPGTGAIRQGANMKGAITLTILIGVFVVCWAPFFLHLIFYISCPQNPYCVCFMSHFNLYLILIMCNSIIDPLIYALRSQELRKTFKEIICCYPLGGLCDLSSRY
Protocol: The membranes were prepared from frozen or fresh cells that were homogenized in 20 mM HEPES pH 7.1, 5 mM MgCl₂ and 1 mg/ml bacitracin and centrifuged at 15000 rpm at 4° C., 10 min in a Sorvall RC 5B plus, SS-34 rotor. The supernatant was discarded, and the pellets were re-suspended in buffer, homogenized and centrifuged two more times. The final pellets were resuspended in the buffer mentioned above, and the protein concentration was measured and adjusted with buffer to 14 to 17 mg/ml and the membrane preparation were kept at −80° C. until assay. The assay was run directly on a dilution of this cell membrane suspension, without any further preparation. The BHK cell membranes are kept at −80° C. until assay, and the assay is run directly on a dilution of this cell membrane suspension, without further preparation. The suspension is diluted to give maximally 10% specific binding, i.e. to approx. 50-100 fold dilution. […] Test compounds were dissolved in DMSO and diluted in binding buffer. Radiolabelled ligand and membranes were diluted in binding buffer. The incubation was stopped by dilution with 2×100 μl ice-cold 0.9% NaCl. The radioactivity retained on the filters was counted using a Cobra II auto gamma counter.
as §1

Row | Binder | Ki (MC1 receptor) [nM] | Ki (human MC4 receptor) [nM]
1 | Ac-[hCys]H[dF]RWCSPHEK(bis(carboxymethyl))K([AEEA-C18 diacid])-NH2 (disulfide 1-6) | 442 | 0.55
2 | Ac-[hCys]S[dF]RWCPPKEK(biscarboxymethyl″)K(X2)-NH2 (disulfide 1-6) | 2060 | 10
3 | Ac-[hCys]H[dF]RWCSPKEK(bis(carboxymethyl))K([AEEA-C16 diacid])-NH2 (disulfide 1-6) | 169 | 3.43
4 | Ac-[Dap]H[dF]RWDPPRDK(biscarboxymethyl(3))K([AEEA-Palmitoyl(16-(5-tetrazolyl))])-NH2 (lactam 1-6) | 1830 | 5.16
5 | Ac-[Orn]H[dF]RWDPPRDK(biscarboxymethyl)K(X2)-NH2 (lactam 1-6) | 2340 | 0.85
6 | Ac-[Orn]H[dF]RWDPPHEK(biscarboxymethyl)K(X3)-NH2 (lactam 1-6) | 8600 | 3.4
7 | Ac-[Orn]H[dF]RWDPPHEK(biscarboxymethyl)K(X6)-NH2 (lactam 1-6) | 7370 | 1.8
8 | Ac-[Dap]H[dF]RWEPPRDK(biscarboxymethyl(3))K([AEEA-Palmitoyl(16-(5-tetrazolyl))])-NH2 (lactam 1-6) | 3850 | 0.7
9 | Ac-EH[dF]RW[Orn][Hyp][Hyp]RDK(biscarboxymethyl)K(X2)-NH2 (lactam 1-6) | 7230 | 3.25
10 | Ac-DH[dF]RW[Dab]PPRDK(biscarboxymethyl(4))K(X2)-NH2 (lactam 1-6) | 5140 | 1.33
11 | Ac-DH[dF]RW[Orn]PPRDK(biscarboxymethyl(3))K([AEEA-Palmitoyl(16-(5-tetrazolyl))])-NH2 (lactam 1-6) | 2540 | 33
12 | Ac-EH[dF]RW[Orn]PPHDK(biscarboxymethyl)K(X2)-NH2 (lactam 1-6) | 5170 | 3.58
13 | B1 | 7980 | 107
14 | Ac-[Orn]H[dF]RWDPPREK(biscarboxymethyl)SS-X5 (lactam 1-6) | 2500 | 0.93
15 | B2 | 7540 | 0.64
16 | B3 | 177 | 0.6
17 | Ac-[Orn]H[dF]RWDPPREK(biscarboxymethyl)K(X2)-NH2 (lactam 1-6) | 2770 | 0.33
18 | Ac-[Dab]H[dF]RWDPPRDK(biscarboxymethyl(3))K([AEEA-Palmitoyl(16-(5-tetrazolyl))])-NH2 (lactam 1-6) | 5740 | 31
19 | Ac-[Orn]H[dF]RWEPPRDK(bis(carboxymethyl))K([AEEA-Palmitoyl(16-(5-tetrazolyl))])-NH2 (lactam 1-6) | 433 | 3.53
20 | Ac-[Orn]H[dF]RWDPPHEK(biscarboxymethyl)K(X4)-NH2 (lactam 1-6) | 4830 | 1.05
21 | B4 | 5550 | 8.95
22 | Ac-EH[dF]RW[Orn]PPRDK(biscarboxymethyl)K(X2)-NH2 (lactam 1-6) | 5240 | 1.42
23 | B5 | – | 14
24 | B6 | 7220 | 6.2
25 | Ac-[Orn]H[dF]RWDPSSSK(biscarboxymethyl)SSK(X3)-NH2 (lactam 1-6) | 3890 | 1.2
26 | B7 | – | 21

— US20130012432A1 (Novo Nordisk, published 2013)
